Publication PMC9934407, “Comprehensive structural characterization of the human AAA+ disaggregase CLPB in the apo- and substrate-bound states reveals a unique mode of action driven by oligomerization” (PLOS Biology, 2023)
Several values for one entry are separate records, joined by “and”; a condition that tells them apart may be missing. Identical values can stand only once.

Legend:
[1] = molecular target: human CLPB NBD-only variant (N-terminal ANK domain truncated) (human) (UniProt Q9H078); test: cryo-EM 2D classification; NBD^WT-AMPPNP dataset
[2] = molecular target: human CLPB NBD-only variant with E425Q (human) (UniProt Q9H078); test: cryo-EM structure; NBD^E425Q-ATP dataset; self-assembly into hexamer, heptamer and nonamer
[3] = molecular target: human CLPB isoform 1 (human); test: negative staining electron microscopy + cryo-EM 2D classification; CLPB^isoform1-AMPPNP dataset, protein purified from E. coli
[4] = molecular target: the molecule itself; test: cryo-EM 2D classification; CLPB-ATPγS dataset, control without casein
[5] = molecular target: the molecule itself; test: cryo-EM structure; CLPB^E425Q-ATP dataset; sample treated with ATP and about 1 mM BS3, 0.5 mM CHAPSO added; self-assembly of the mutant
[6] = molecular target: the molecule itself; test: SEC + other: negative staining electron microscopy; proteins purified from E. coli; Superose 6 Increase 10/300 GL, 20 mM HEPES-KOH pH 6.8, 300 mM KCl, 5 mM MgCl2; with or without AMPPNP; peak fraction seen by nsEM
[7] = molecular target: the molecule itself; test: SEC; purification of CLPB, CLPB^Δ201–232 and CLPB^isoform1 complexes by size-exclusion chromatography (S7C–S7E Fig)

## human CLPB NBD-only variant (N-terminal ANK domain truncated) (from UniProt Q9H078-2 1-677) (domain or fragment)
[1]
  stoichiometry N: 6 and 7

## human CLPB NBD-only variant with E425Q (from UniProt Q9H078-2 1-677) (domain or fragment)
[2]
  stoichiometry N: 6 and 7 and 9

## human CLPB isoform 1 (enzyme)
[3]
  stoichiometry N: 14

B1: human CLPB (isoform 2), construct CLPB-N127, wild type (enzyme, UniProt Q9H078-2 127-677, looked up)
chain: YSKSPSNKDAALLEAARANNMQEVSRLLSEGADVNAKHRLGWTALMVAAINRNNSVVQVLLAAGADPNLGDDFSSVYKTAKEQGIHSLEVLITREDDFNNRLNNRASFKGCTALHYAVLADDYRTVKELLDGGANPLQRNEMGHTPLDYAREGEVMKLLRTSEAKYQEKQRKREAEERRRFPLEQRLKEHIIGQESAIATVGAAIRRKENGWYDEEHPLVFLFLGSSGIGKTELAKQTAKYMHKDAKKGFIRLDMSEFQERHEVAKFIGSPPGYVGHEEGGQLTKKLKQCPNAVVLFDEVDKAHPDVLTIMLQLFDEGRLTDGKGKTIDCKDAIFIMTSNVASDEIAQHALQLRQEALEMSRNRIAENLGDVQISDKITISKNFKENVIRPILKAHFRRDEFLGRINEIVYFLPFCHSELIQLVNKELNFWAKRAKQRHNITLLWDREVADVLVDGYNVHYGARSIKHEVERRVVNQLAAAYEQDLLPGGCTLRITVEDSDKQLLKSPELPSPQAEKRLPKLRLEIIDKDSKTRRLDIRAPLHPEKVCNTI
notes: human CLPB, splicing isoform 2, starting from the PARL cleavage site (between C126 and Y127) to the C-terminus; Double-heptamer (tetradecamer) in the apo state; about 1 mM BS3 was added to the samples for cryo-EM; also called SKD3; WT CLPB; source: E. coli Transetta (DE3), purified (ammonium sulfate, Mono Q, TEV cleavage, Superose 6 SEC); not shown: His×6-SUMO, N-terminal, cleaved; copies: 14
[4]
  stoichiometry N: 14

B2: human CLPB (isoform 2, CLPB-N127) Walker B mutant E425Q (enzyme, UniProt Q9H078-2 127-677, looked up)
chain: YSKSPSNKDAALLEAARANNMQEVSRLLSEGADVNAKHRLGWTALMVAAINRNNSVVQVLLAAGADPNLGDDFSSVYKTAKEQGIHSLEVLITREDDFNNRLNNRASFKGCTALHYAVLADDYRTVKELLDGGANPLQRNEMGHTPLDYAREGEVMKLLRTSEAKYQEKQRKREAEERRRFPLEQRLKEHIIGQESAIATVGAAIRRKENGWYDEEHPLVFLFLGSSGIGKTELAKQTAKYMHKDAKKGFIRLDMSEFQERHEVAKFIGSPPGYVGHEEGGQLTKKLKQCPNAVVLFDQVDKAHPDVLTIMLQLFDEGRLTDGKGKTIDCKDAIFIMTSNVASDEIAQHALQLRQEALEMSRNRIAENLGDVQISDKITISKNFKENVIRPILKAHFRRDEFLGRINEIVYFLPFCHSELIQLVNKELNFWAKRAKQRHNITLLWDREVADVLVDGYNVHYGARSIKHEVERRVVNQLAAAYEQDLLPGGCTLRITVEDSDKQLLKSPELPSPQAEKRLPKLRLEIIDKDSKTRRLDIRAPLHPEKVCNTI
notes: human CLPB isoform 2 from the PARL cleavage site (Y127) to the C-terminus, with E425Q; Double-hexamer (dodecamer) with a co-purified endogenous peptide in the central channel; also called CLPB^E425Q; source: E. coli, purified as the wild type; not shown: His×6-SUMO, N-terminal, cleaved; copies: 12
[5]
  stoichiometry N: 12

B3: human CLPB (isoform 2) R178E (enzyme, UniProt Q9H078-2 127-677, looked up)
chain: YSKSPSNKDAALLEAARANNMQEVSRLLSEGADVNAKHRLGWTALMVAAINENNSVVQVLLAAGADPNLGDDFSSVYKTAKEQGIHSLEVLITREDDFNNRLNNRASFKGCTALHYAVLADDYRTVKELLDGGANPLQRNEMGHTPLDYAREGEVMKLLRTSEAKYQEKQRKREAEERRRFPLEQRLKEHIIGQESAIATVGAAIRRKENGWYDEEHPLVFLFLGSSGIGKTELAKQTAKYMHKDAKKGFIRLDMSEFQERHEVAKFIGSPPGYVGHEEGGQLTKKLKQCPNAVVLFDEVDKAHPDVLTIMLQLFDEGRLTDGKGKTIDCKDAIFIMTSNVASDEIAQHALQLRQEALEMSRNRIAENLGDVQISDKITISKNFKENVIRPILKAHFRRDEFLGRINEIVYFLPFCHSELIQLVNKELNFWAKRAKQRHNITLLWDREVADVLVDGYNVHYGARSIKHEVERRVVNQLAAAYEQDLLPGGCTLRITVEDSDKQLLKSPELPSPQAEKRLPKLRLEIIDKDSKTRRLDIRAPLHPEKVCNTI
notes: human CLPB isoform 2 (CLPB-N127) with R178E; also called CLPB^R178E; source: E. coli, purified; not shown: His×6-SUMO, N-terminal, cleaved
[6]
  binding result: binds

B4: human CLPB (isoform 2) R227E (enzyme, UniProt Q9H078-2 127-677, looked up)
chain: YSKSPSNKDAALLEAARANNMQEVSRLLSEGADVNAKHRLGWTALMVAAINRNNSVVQVLLAAGADPNLGDDFSSVYKTAKEQGIHSLEVLITREDDFNNELNNRASFKGCTALHYAVLADDYRTVKELLDGGANPLQRNEMGHTPLDYAREGEVMKLLRTSEAKYQEKQRKREAEERRRFPLEQRLKEHIIGQESAIATVGAAIRRKENGWYDEEHPLVFLFLGSSGIGKTELAKQTAKYMHKDAKKGFIRLDMSEFQERHEVAKFIGSPPGYVGHEEGGQLTKKLKQCPNAVVLFDEVDKAHPDVLTIMLQLFDEGRLTDGKGKTIDCKDAIFIMTSNVASDEIAQHALQLRQEALEMSRNRIAENLGDVQISDKITISKNFKENVIRPILKAHFRRDEFLGRINEIVYFLPFCHSELIQLVNKELNFWAKRAKQRHNITLLWDREVADVLVDGYNVHYGARSIKHEVERRVVNQLAAAYEQDLLPGGCTLRITVEDSDKQLLKSPELPSPQAEKRLPKLRLEIIDKDSKTRRLDIRAPLHPEKVCNTI
notes: human CLPB isoform 2 (CLPB-N127) with R227E; also called CLPB^R227E; source: E. coli, purified; not shown: His×6-SUMO, N-terminal, cleaved
[6]
  binding result: binds

B5: human CLPB (isoform 2) with the ANK insertion deleted (enzyme, UniProt Q9H078-2 127-677, looked up)
chain: YSKSPSNKDAALLEAARANNMQEVSRLLSEGADVNAKHRLGWTALMVAAINRNNSVVQVLLAAGADPNLGDDFSSFKGCTALHYAVLADDYRTVKELLDGGANPLQRNEMGHTPLDYAREGEVMKLLRTSEAKYQEKQRKREAEERRRFPLEQRLKEHIIGQESAIATVGAAIRRKENGWYDEEHPLVFLFLGSSGIGKTELAKQTAKYMHKDAKKGFIRLDMSEFQERHEVAKFIGSPPGYVGHEEGGQLTKKLKQCPNAVVLFDEVDKAHPDVLTIMLQLFDEGRLTDGKGKTIDCKDAIFIMTSNVASDEIAQHALQLRQEALEMSRNRIAENLGDVQISDKITISKNFKENVIRPILKAHFRRDEFLGRINEIVYFLPFCHSELIQLVNKELNFWAKRAKQRHNITLLWDREVADVLVDGYNVHYGARSIKHEVERRVVNQLAAAYEQDLLPGGCTLRITVEDSDKQLLKSPELPSPQAEKRLPKLRLEIIDKDSKTRRLDIRAPLHPEKVCNTI
notes: human CLPB isoform 2 (CLPB-N127) with the insertion between AM2 and AM3 completely deleted; source: E. coli, purified; not shown: His×6-SUMO, N-terminal, cleaved
[7]
  binding result: binds
